# In patent US20040265797A1 (CHIRON, published 2004):
# Square brackets hold non-standard residues; d marks the D form. Ends that are not written are not given here. 1Nal = N[C@@H](Cc1cccc2ccccc12)C(=O)O; 2Nal = N[C@@H](Cc1ccc2ccccc2c1)C(=O)O; Nle = CCCC[C@H](N)C(=O)O; Abu = CC[C@H](N)C(=O)O
# Molecular target: T1, Soluble recombinant human urokinase receptor (suPAR) (human, UniProt Q03405 23-299, limits assumed, biotinylated in the plate assays (sites not given))
# T1 construct: Only called a soluble truncated form of the urokinase receptor; also called soluble uPAR; biotinylated suPAR
# T1 sequence (Q03405 23-299 limits assumed): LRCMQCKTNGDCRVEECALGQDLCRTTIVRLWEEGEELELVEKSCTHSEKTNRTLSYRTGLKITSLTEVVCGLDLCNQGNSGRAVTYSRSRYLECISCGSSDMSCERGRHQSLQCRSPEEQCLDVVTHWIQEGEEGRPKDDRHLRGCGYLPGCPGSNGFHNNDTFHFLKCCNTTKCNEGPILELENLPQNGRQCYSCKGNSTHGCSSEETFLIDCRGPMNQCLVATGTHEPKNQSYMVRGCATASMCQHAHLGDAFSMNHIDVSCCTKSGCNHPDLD
# Assay: competition with phage displaying peptide 25 for soluble uPAR
# Experimental: The final anti-M13 conjugate dilution was 1:4000.
# These concentrations were calculated based on the synthesis reactions.
% Inhibition at 2.5 uM,% Inhibition at 5 uM,Binder
22%,75%,AESTYHHLSLGYMYT[dL]N-NH2 (N-terminus assumed; SMILES CSCC[C@H](NC(=O)[C@H](Cc1ccc(O)cc1)NC(=O)CNC(=O)[C@H](CC(C)C)NC(=O)[C@H](CO)NC(=O)[C@H](CC(C)C)NC(=O)[C@H](Cc1c[nH]cn1)NC(=O)[C@H](Cc1c[nH]cn1)NC(=O)[C@H](Cc1ccc(O)cc1)NC(=O)[C@@H](NC(=O)[C@H](CO)NC(=O)[C@H](CCC(=O)O)NC(=O)[C@H](C)N)[C@@H](C)O)C(=O)N[C@@H](Cc1ccc(O)cc1)C(=O)N[C@H](C(=O)N[C@H](CC(C)C)C(=O)N[C@@H](CC(N)=O)C(N)=O)[C@@H](C)O) [Analog 60]
32%,55%,AESTYHHLSLGYMYTL[dN]-NH2 (N-terminus assumed; SMILES CSCC[C@H](NC(=O)[C@H](Cc1ccc(O)cc1)NC(=O)CNC(=O)[C@H](CC(C)C)NC(=O)[C@H](CO)NC(=O)[C@H](CC(C)C)NC(=O)[C@H](Cc1c[nH]cn1)NC(=O)[C@H](Cc1c[nH]cn1)NC(=O)[C@H](Cc1ccc(O)cc1)NC(=O)[C@@H](NC(=O)[C@H](CO)NC(=O)[C@H](CCC(=O)O)NC(=O)[C@H](C)N)[C@@H](C)O)C(=O)N[C@@H](Cc1ccc(O)cc1)C(=O)N[C@H](C(=O)N[C@@H](CC(C)C)C(=O)N[C@H](CC(N)=O)C(N)=O)[C@@H](C)O) [Analog 61]
41%,57%,[dA]ESTYHHLSLGYMYTLN-NH2 (N-terminus assumed; SMILES CSCC[C@H](NC(=O)[C@H](Cc1ccc(O)cc1)NC(=O)CNC(=O)[C@H](CC(C)C)NC(=O)[C@H](CO)NC(=O)[C@H](CC(C)C)NC(=O)[C@H](Cc1c[nH]cn1)NC(=O)[C@H](Cc1c[nH]cn1)NC(=O)[C@H](Cc1ccc(O)cc1)NC(=O)[C@@H](NC(=O)[C@H](CO)NC(=O)[C@H](CCC(=O)O)NC(=O)[C@@H](C)N)[C@@H](C)O)C(=O)N[C@@H](Cc1ccc(O)cc1)C(=O)N[C@H](C(=O)N[C@@H](CC(C)C)C(=O)N[C@@H](CC(N)=O)C(N)=O)[C@@H](C)O) [Analog 46]
35%,61%,A[dE]STYHHLSLGYMYTLN-NH2 (N-terminus assumed; SMILES CSCC[C@H](NC(=O)[C@H](Cc1ccc(O)cc1)NC(=O)CNC(=O)[C@H](CC(C)C)NC(=O)[C@H](CO)NC(=O)[C@H](CC(C)C)NC(=O)[C@H](Cc1c[nH]cn1)NC(=O)[C@H](Cc1c[nH]cn1)NC(=O)[C@H](Cc1ccc(O)cc1)NC(=O)[C@@H](NC(=O)[C@H](CO)NC(=O)[C@@H](CCC(=O)O)NC(=O)[C@H](C)N)[C@@H](C)O)C(=O)N[C@@H](Cc1ccc(O)cc1)C(=O)N[C@H](C(=O)N[C@@H](CC(C)C)C(=O)N[C@@H](CC(N)=O)C(N)=O)[C@@H](C)O) [Analog 47]
73%,86%,AESTYHHL[dS]LGYMYTLN-NH2 (N-terminus assumed; SMILES CSCC[C@H](NC(=O)[C@H](Cc1ccc(O)cc1)NC(=O)CNC(=O)[C@H](CC(C)C)NC(=O)[C@@H](CO)NC(=O)[C@H](CC(C)C)NC(=O)[C@H](Cc1c[nH]cn1)NC(=O)[C@H](Cc1c[nH]cn1)NC(=O)[C@H](Cc1ccc(O)cc1)NC(=O)[C@@H](NC(=O)[C@H](CO)NC(=O)[C@H](CCC(=O)O)NC(=O)[C@H](C)N)[C@@H](C)O)C(=O)N[C@@H](Cc1ccc(O)cc1)C(=O)N[C@H](C(=O)N[C@@H](CC(C)C)C(=O)N[C@@H](CC(N)=O)C(N)=O)[C@@H](C)O) [Analog 54]

# The next lines start with the binder.
Binder,% Inhibition at 2.5 uM,% Inhibition at 5 uM
AEST[1Nal]HHLSLGYMYTLN-NH2 (N-terminus assumed; SMILES CSCC[C@H](NC(=O)[C@H](Cc1ccc(O)cc1)NC(=O)CNC(=O)[C@H](CC(C)C)NC(=O)[C@H](CO)NC(=O)[C@H](CC(C)C)NC(=O)[C@H](Cc1c[nH]cn1)NC(=O)[C@H](Cc1c[nH]cn1)NC(=O)[C@H](Cc1cccc2ccccc12)NC(=O)[C@@H](NC(=O)[C@H](CO)NC(=O)[C@H](CCC(=O)O)NC(=O)[C@H](C)N)[C@@H](C)O)C(=O)N[C@@H](Cc1ccc(O)cc1)C(=O)N[C@H](C(=O)N[C@@H](CC(C)C)C(=O)N[C@@H](CC(N)=O)C(N)=O)[C@@H](C)O) [Analog 35],70%,94%
AESTYHHLSLGYMYTLN-NH2 (also called clone 25 peptide; analogs 3 and 4) [Peptide 25 (synthetic peptide of clone 25)],45%,59%
AESTYHHLSLGYVYTLN-NH2 [Analog 43],63%,82%
AESTFHHLSLGYMYTLN-NH2 [Analog 34],38%,47%
AEST[2Nal]HHLSLGYMYTLN-NH2 (N-terminus assumed; SMILES CSCC[C@H](NC(=O)[C@H](Cc1ccc(O)cc1)NC(=O)CNC(=O)[C@H](CC(C)C)NC(=O)[C@H](CO)NC(=O)[C@H](CC(C)C)NC(=O)[C@H](Cc1c[nH]cn1)NC(=O)[C@H](Cc1c[nH]cn1)NC(=O)[C@H](Cc1ccc2ccccc2c1)NC(=O)[C@@H](NC(=O)[C@H](CO)NC(=O)[C@H](CCC(=O)O)NC(=O)[C@H](C)N)[C@@H](C)O)C(=O)N[C@@H](Cc1ccc(O)cc1)C(=O)N[C@H](C(=O)N[C@@H](CC(C)C)C(=O)N[C@@H](CC(N)=O)C(N)=O)[C@@H](C)O) [Analog 36],61%,78%
AESTYHHLSLGY[Nle]YTLN-NH2 (N-terminus assumed; SMILES CCCC[C@H](NC(=O)[C@H](Cc1ccc(O)cc1)NC(=O)CNC(=O)[C@H](CC(C)C)NC(=O)[C@H](CO)NC(=O)[C@H](CC(C)C)NC(=O)[C@H](Cc1c[nH]cn1)NC(=O)[C@H](Cc1c[nH]cn1)NC(=O)[C@H](Cc1ccc(O)cc1)NC(=O)[C@@H](NC(=O)[C@H](CO)NC(=O)[C@H](CCC(=O)O)NC(=O)[C@H](C)N)[C@@H](C)O)C(=O)N[C@@H](Cc1ccc(O)cc1)C(=O)N[C@H](C(=O)N[C@@H](CC(C)C)C(=O)N[C@@H](CC(N)=O)C(N)=O)[C@@H](C)O) [Analog 44],,91%
"AESTYHHLSLGY[Abu]YTLN-NH2 (N-terminus assumed; SMILES CC[C@H](NC(=O)[C@H](Cc1ccc(O)cc1)NC(=O)CNC(=O)[C@H](CC(C)C)NC(=O)[C@H](CO)NC(=O)[C@H](CC(C)C)NC(=O)[C@H](Cc1c[nH]cn1)NC(=O)[C@H](Cc1c[nH]cn1)NC(=O)[C@H](Cc1ccc(O)cc1)NC(=O)[C@@H](NC(=O)[C@H](CO)NC(=O)[C@H](CCC(=O)O)NC(=O)[C@H](C)N)[C@@H](C)O)C(=O)N[C@@H](Cc1ccc(O)cc1)C(=O)N[C@H](C(=O)N[C@@H](CC(C)C)C(=O)N[C@@H](CC(N)=O)C(N)=O)[C@@H](C)O, T0004 prints Y there, as in peptide 25; Y is used) [Analog 45]",31%,59%
